B1: Segment polarity protein dishevelled homolog DVL-2 (Mus musculus), Q60838 (parent)
chain: MAGSSAGGGGVGETKVIYHLDEEETPYLVKIPVPAERITLGDFKSVLQRPAGAKYFFKSMDQDFGVVKEEISDDNARLPCFNGRVVSWLVSSDTPQPEVAPPAHESRTELVPPPPPLPPLPPERTSGIGDSRPPSFHPNVSSSHENLEPETETESVVSLRRDRPRRRDSSEHGAGGHRPGGPSRLERHLAGYESSSTLMTSELESTSLGDSDEDDTMSRFSSSTEQSSASRLLKRHRRRRKQRPPRMERTSSFSSVTDSTMSLNIITVTLNMEKYNFLGISIVGQSNERGDGGIYIGSIMKGGAVAADGRIEPGDMLLQVNDMNFENMSNDDAVRVLRDIVHKPGPIVLTVAKCWDPSPQAYFTLPRNEPIQPIDPAAWVSHSAALTGAFPAYPGSSSMSTITSGSSLPDGCEGRGLSVHMDMASVTKAMAAPESGLEVRDRMWLKITIPNAFLGSDVVDWLYHHVEGFPERREARKYASGLLKAGLIRHTVNKITFSEQCYYVFGDLSGGCESYLVNLSLNDNDGSSGASDQDTLAPLPGATPWPLLPTFSYQYPAPHPYSPQPPPYHELSSYTYGGGSASSQHSEGSRSSGSTRSDGGAGRTGRPEERAPESKSGSGSESELSSRGGSLRRGGEPGGTGDGGPPPSRGSTGAPPNLRALPGLHPYGAPSGMALPYNPMMVVMMPPPPPPVSTAVQPPGAPPVRDLGSVPPELTASRQSFHMAMGNPSEFFVDVM
B2: AP-2 complex subunit mu (Rattus norvegicus (Rat)), P84092 (parent)
chain: MIGGLFIYNHKGEVLISRVYRDDIGRNAVDAFRVNVIHARQQVRSPVTNIARTSFFHVKRSNIWLAAVTKQNVNAAMVFEFLYKMCDVMAAYFGKISEENIKNNFVLIYELLDEILDFGYPQNSETGALKTFITQQGIKSQHQTKEEQSQITSQVTGQIGWRREGIKYRRNELFLDVLESVNLLMSPQGQVLSAHVSGRVVMKSYLSGMPECKFGMNDKIVIEKQGKGTADETSKSGKQSIAIDDCTFHQCVRLSKFDSERSISFIPPDGEFELMRYRTTKDIILPFRVIPLVREVGRTKLEVKVVIKSNFKPSLLAQKIEVRIPTPLNTSGVQVICMKGKAKYKASENAIVWKIKRMAGMKESQISAEIELLPTNDKKKWARPPISMNFEVPFAPSGLKVRYLKVFEPKLNYSDHDVIKWVRYIGRSGIYETRC
partner: B1 chain

Variants of: B1
Conditions: with ap2m1_rat Ap2m1, P84092

Variant	effect of a mutation on the interaction
D441K;R489A	decreasing interaction
D441K;N451A;R489A	decreasing interaction

The remaining lines, values ahead:

effect of a mutation on the interaction	Variant
decreasing interaction	R489A
disrupting interaction	Y561A
decreasing interaction	D441K
decreasing interaction	D441K;N451A
decreasing interaction	N451A
decreasing interaction strength	K446M
decreasing interaction strength	K446A

Variants of: B1
Conditions: with ap2b1_bovin AP2B1, P63009
ap2b1_bovin AP2B1, P63009, sequence (P63009 whole entry): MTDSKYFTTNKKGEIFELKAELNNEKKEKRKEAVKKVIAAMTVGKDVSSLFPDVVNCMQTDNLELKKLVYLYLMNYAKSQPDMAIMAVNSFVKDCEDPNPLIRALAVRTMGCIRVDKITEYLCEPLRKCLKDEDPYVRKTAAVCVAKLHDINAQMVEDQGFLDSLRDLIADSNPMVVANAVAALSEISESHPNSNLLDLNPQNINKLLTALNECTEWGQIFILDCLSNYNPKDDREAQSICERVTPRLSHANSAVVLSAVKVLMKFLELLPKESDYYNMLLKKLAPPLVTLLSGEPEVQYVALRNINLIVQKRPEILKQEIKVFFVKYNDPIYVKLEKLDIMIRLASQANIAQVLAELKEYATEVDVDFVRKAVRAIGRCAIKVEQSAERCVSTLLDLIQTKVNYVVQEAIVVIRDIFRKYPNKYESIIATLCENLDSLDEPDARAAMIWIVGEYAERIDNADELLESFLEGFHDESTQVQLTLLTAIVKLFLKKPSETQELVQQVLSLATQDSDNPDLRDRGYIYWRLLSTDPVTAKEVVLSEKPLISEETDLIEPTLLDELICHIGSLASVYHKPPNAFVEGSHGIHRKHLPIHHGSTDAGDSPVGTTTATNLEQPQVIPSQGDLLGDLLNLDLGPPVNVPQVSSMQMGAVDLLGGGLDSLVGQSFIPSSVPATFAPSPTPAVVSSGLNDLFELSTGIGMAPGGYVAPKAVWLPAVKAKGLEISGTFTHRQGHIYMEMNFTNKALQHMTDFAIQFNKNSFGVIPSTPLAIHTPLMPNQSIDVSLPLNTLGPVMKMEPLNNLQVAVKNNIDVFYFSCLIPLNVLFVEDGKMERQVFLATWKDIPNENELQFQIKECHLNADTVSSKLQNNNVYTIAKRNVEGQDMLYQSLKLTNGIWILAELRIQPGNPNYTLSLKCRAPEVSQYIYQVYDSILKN

effect of a mutation on the interaction	Variant
disrupting interaction	Y561A

Variants of: B2
Conditions: with dvl2_mouse Dvl2, Q60838

effect of a mutation on the interaction	Variant
decreasing interaction	MIGGLFIYNHKGEVLISRVYRDDIGRNAVDAFRVNVIHARQQVRSPVTNIARTSFFHVKRSNIWLAAVTKQNVNAAMVFEFLYKMCDVMAAYFGKISEENIKNNFVLIYELLDEILDFGYPQNSETGALKTFITQQGIKSQHQTKEEQSQITSQVTGQIGWRREGIKYRRNELFLDVLESVNLLMSPQGQVLSAHVSGRVVMKSYLSGMPACDFGMNDKIVIEKQGKGTADETSKSGKQSIAIDDCTFHQCVRLSKFDSERSISFIPPDGEFELMRYRTTKDIILPFRVIPLVREVGRTKLEVKVVIKSNFKPSLLAQKIEVRIPTPLNTSGVQVICMKGKAKYKASENAIVWKIKRMAGMKESQISAEIELLPTNDKKKWARPPISMNFEVPFAPSGLKVRYLDVFEPKLNYSDHDVIKWVRYIGRSGIYETRC [E211A;K213D;K405D]
decreasing interaction	MIGGLFIYNHKGEVLISRVYRDDIGRNAVDAFRVNVIHARQQVRSPVTNIARTSFFHVKRSNIWLAAVTKQNVNAAMVFEFLYKMCDVMAAYFGKISEENIKNNFVLIYELLDEILDFGYPQNSETGALKTFITQQGIKSQHQTKEEQSQITSQVTGQIGWRREGIKYRRNELFLDVLESVNLLMSPQGQVLSAHVSGRVVMKSYLSGMPECDFGMNDKIVIEKQGKGTADETSKSGKQSIAIDDCTFHQCVRLSKFDSERSISFIPPDGEFELMRYRTTKDIILPFRVIPLVREVGRTKLEVKVVIKSNFKPSLLAQKIEVRIPTPLNTSGVQVICMKGKAKYKASENAIVWKIKRMAGMKESQISAEIELLPTNDKKKWARPPISMNFEVPFAPSGLKVRYLDVFEPKLNYSDHDVIKWVRYIGRSGIYETRC [K213D;K405D]
decreasing interaction	MIGGLFIYNHKGEVLISRVYRDDIGRNAVDAFRVNVIHARQQVRSPVTNIARTSFFHVKRSNIWLAAVTKQNVNAAMVFEFLYKMCDVMAAYFGKISEENIKNNFVLIYELLDEILDFGYPQNSETGALKTFITQQGIKSQHQTKEEQSQITSQVTGQIGWRREGIKYRRNELFLDVLESVNLLMSPQGQVLSAHVSGRVVMKSYLSGMPACDFGMNDKIVIEKQGKGTADETSKSGKQSIAIDDCTFHQCVRLSKFDSERSISFIPPDGEFELMRYRTTKDIILPFRVIPLVREVGRTKLEVKVVIKSNFKPSLLAQKIEVRIPTPLNTSGVQVICMKGKAKYKASENAIVWKIKRMAGMKESQISAEIELLPTNDKKKWARPPISMNFEVPFAPSGLKVRYLDVAEPKLNYSDHDVIKWVRYIGRSGIYETRC [E211A;K213D;K405D;F407A]
disrupting interaction	MIGGLFIYNHKGEVLISRVYRDDIGRNAVDAFRVNVIHARQQVRSPVTNIARTSFFHVKRSNIWLAAVTKQNVNAAMVFEFLYKMCDVMAAYFGKISEENIKNNFVLIYELLDEILDFGYPQNSETGALKTFITQQGIKSQHQTKEEQSQITSQVTGQIGWRREGIKYRRNELFLDVLESVNLLMSPQGQVLSAHVSGRVVMKSYLSGMPECKFGMNDKIVIEKQGKGTADETSKSGKQSIAIDDCTFHQCVRLSKFDSERSISFIPPDGEFELMRYRTTKDIILPFRVIPLVREVGRTKLEVKVVIKSNFKPSLLAQKIEVRIPTPLNTSGVQVICMKGKAKYKASENAIVWKIKRMAGMKESQISAEIELLPTNDKKKWARPPISMNFEVPFAPSGLKVRYLKVFEPKLNYSDHDVIKAVRYIGRSGIYETRC [W421A]

Reference: IntAct's records for PubMed 20947020
